According to patent US20200339657A1, “PEPTIDES AND COMBINATION THEREOF FOR USE IN THE IMMUNOTHERAPY AGAINST CANCERS” (Immatics Biotechnologies GmbH, priority 2017, published 2020):

Tests used:
HLA-A*02:01 = HLA-A*02:01 (Homo sapiens, UniProt P04439, D140Y/D185E/D98H/E176V/E277Q/G131W/G231S/I119V/I121R/I166T/I218V/L300P/L318F/N151K/N90K/P208A/P217A/Q86G/Q94H/R138H/R169H/T345S); assay: MHC binding assay (UV-ligand exchange, β2m ELISA); conditions: for Peptide exchange: peptide exchange yield, binding to HLA-A*02:01
CD8+ T cells = assay: In vitro immunogenicity: T-cell priming with aAPCs loaded with peptide/MHC and anti-CD28, multimer readout; format: cell-based, human
HLA-A*24:02 = HLA-A*24:02 (Homo sapiens, UniProt P04439, D101N/D140Y/D185E/E176V/E190D/F33S/G103R/G107R/I119L/I121M/I306V/K335N/L105A/L180Q/L300P/N151K/N90K/Q86E/Q94H/R106L/R138H/R89G/T104I/T345S/V100E/W191G/Y123F); assay: MHC binding assay (UV-ligand exchange, β2m ELISA); conditions: for Peptide exchange: peptide exchange yield, binding to HLA-A*24:02

Substance | Peptide exchange (HLA-A*02:01) | other results
38 (VMLNSNVLL; listed as Homo sapiens) [compound 38] | “++++” (>75% = ++++) | Wells positive [%] (CD8+ T cells; HLA A*02): “+” (<20% = +)
40 (KIDDIWNLEV; listed as Homo sapiens) [compound 40] | “+++” (>50 = +++) | –
42 (KMMALVAEL; listed as Homo sapiens) [compound 42] | “++++” (>75% = ++++) | Wells positive [%] (CD8+ T cells; HLA A*02): “++++” (>= 70% = ++++)
47 (YQDSWFQQL; listed as Homo sapiens) [compound 47] | “+++” (>50 = +++) | –
51 (ALAAELNQL; listed as Homo sapiens) [compound 51] | “+++” (>50 = +++) | –
53 (LLMTSLTES; listed as Homo sapiens) [compound 53] | “+++” (>50 = +++) | –
55 (RLWQIQHHL; listed as Homo sapiens) [compound 55] | “+++” (>50 = +++) | –
56 (FLNQIYTQL; listed as Homo sapiens) [compound 56] | “++++” (>75% = ++++) | Wells positive [%] (CD8+ T cells; HLA A*02): “+++” (50%-69% = +++)
59 (KLHEIYIQA; listed as Homo sapiens) [compound 59] | “++++” (>75% = ++++) | –
61 (RLFGLFLNNV; listed as Homo sapiens) [compound 61] | “++++” (>75% = ++++) | –
133 (SFDSNLLSF; listed as Homo sapiens) [compound 133] | – | Peptide exchange (HLA-A*24:02): “+” (>10% = +)
134 (TYLTGRQF; listed as Homo sapiens) [compound 134] | – | Peptide exchange (HLA-A*24:02): “++” (>20% = ++)
135 (VIAPIISNF; listed as Homo sapiens) [compound 135] | – | Peptide exchange (HLA-A*24:02): “+++” (>50 = +++)
136 (EYNNIQHLF; listed as Homo sapiens) [compound 136] | – | Peptide exchange (HLA-A*24:02): “+++” (>50 = +++)
137 (KYLSLSNSF; listed as Homo sapiens) [compound 137] | – | Peptide exchange (HLA-A*24:02): “++++” (>75% = ++++)
138 (KYLSIPTVF; listed as Homo sapiens) [compound 138] | – | Peptide exchange (HLA-A*24:02): “++++” (>75% = ++++); Wells positive [%] (CD8+ T cells; HLA A*24): “+” (<20% = +)
139 (PYASLASELF; listed as Homo sapiens) [compound 139] | – | Peptide exchange (HLA-A*24:02): “++++” (>75% = ++++)
140 (KYLSIPAVF; listed as Homo sapiens) [compound 140] | – | Peptide exchange (HLA-A*24:02): “++++” (>75% = ++++)
141 (KYLSIPAVFF; listed as Homo sapiens) [compound 141] | – | Peptide exchange (HLA-A*24:02): “++++” (>75% = ++++)
249 (ALFPERITV; listed as Homo sapiens) [compound 249] | “++++” (>75% = ++++) | Wells positive [%] (CD8+ T cells; HLA A*02): “++” (20%-49% = ++)
250 (KMILKMVQL; listed as Homo sapiens) [compound 250] | “+” (>10% = +) | Wells positive [%] (CD8+ T cells; HLA A*02): “++” (20%-49% = ++)
DYIPYVFKL (listed as Homo sapiens) [SEQ ID NO: 268] | – | bind to HLA-A*24 (HLA-A*24:02): binds to HLA-A*24
KTLGKLWRL (listed as Homo sapiens) [SEQ ID NO: 267] | – | bind to HLA-A*02 (HLA-A*02:01): binds to HLA-A*02

Now from value to substance, other results behind:

Peptide exchange (HLA-A*02:01) | Substance | other results
“++++” (>75% = ++++) | 39 (YLLPSVVLL; listed as Homo sapiens) [compound 39] | –
“+++” (>50 = +++) | 41 (SLQDTKITL; listed as Homo sapiens) [compound 41] | –
“++++” (>75% = ++++) | 43 (GLMTIVTSL; listed as Homo sapiens) [compound 43] | Wells positive [%] (CD8+ T cells; HLA A*02): “++” (20%-49% = ++)
“++” (>20% = ++) | 44 (SQTGFVVLV; listed as Homo sapiens) [compound 44] | –
“+++” (>50 = +++) | 45 (KLLDEVTYL; listed as Homo sapiens) [compound 45] | –
“++++” (>75% = ++++) | 46 (VLITGLPLI; listed as Homo sapiens) [compound 46] | –
“+++” (>50 = +++) | 50 (ELMPRVYTL; listed as Homo sapiens) [compound 50] | Wells positive [%] (CD8+ T cells; HLA A*02): “+” (<20% = +)
“+++” (>50 = +++) | 52 (YVSSGEMMV; listed as Homo sapiens) [compound 52] | –
“++++” (>75% = ++++) | 54 (YLPPTDPRMSV; listed as Homo sapiens) [compound 54] | –
“++++” (>75% = ++++) | 57 (GLTGVIMTI; listed as Homo sapiens) [compound 57] | Wells positive [%] (CD8+ T cells; HLA A*02): “++++” (>= 70% = ++++)
“++++” (>75% = ++++) | 60 (GLPDFVKEL; listed as Homo sapiens) [compound 60] | Wells positive [%] (CD8+ T cells; HLA A*02): “++” (20%-49% = ++)
“+++” (>50 = +++) | 251 (RLASRPLLL; listed as Homo sapiens) [compound 251] | –
